# Data taken from the supplement of paper PMC9732359.
# ± gives the uncertainty stated by the source.
# Assay: protein stability index of a GFP-peptide fusion (yeast GPS) (PSI 1-4); higher = more stable; sorted into four equal gates, so the index is relative within each strain
# Method in brief: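 Tiled 17-residue peptides from yeast proteins were fused downstream of GFP on a plasmid that also expresses Cherry, and the pooled library was carried in yeast. Mid-log cultures grown in leucine-free medium were sorted into four equal gates by GFP/Cherry fluorescence ratio. Plasmids from each gate were PCR-amplified and Illumina-sequenced, and reads were assigned to strains by barcodes. Each peptide's protein stability index is the sum, over gates, of the gate's read frequency multiplied by its gate number.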
Sequence,protein stability index (doa10∆),protein stability index (pdr5∆),protein stability index (san1∆),protein stability index (ubr1∆)
KRLIAHDWLNALDGDLI [YCG1],2.18 ± 0.17,2.9 ± 0.16,2.6 ± 0.17,3.23 ± 0.081
KRLLYTRRFVNVTLVNG [RPS30A],2.03 ± 0.051,1.44 ± 0.04,1.62 ± 0.099,1.91 ± 0.059
KRRKTHIHKHVKDEAFD [RET1],2.87 ± 0.11,3.23 ± 0.12,2.92 ± 0.095,3.1 ± 0.1
KRRVTNLEFNYTKPYPN [SMC2],3.12 ± 0.071,2.88 ± 0.14,2.75 ± 0.16,2.81 ± 0.12
KRVHTLLTLIVREYEQP [ISW2],3.28 ± 0.23,2.55 ± 0.15,3.06 ± 0.15,3.46 ± 0.18
KRVKSYMDKAKQYDNRI [LRP1],2.87 ± 0.047,2.89 ± 0.042,2.92 ± 0.04,2.83 ± 0.042
KRYANHTQDIIGGMRVD [RET1],3.11 ± 0.069,3.41 ± 0.075,3.19 ± 0.049,3.37 ± 0.049
KSAENIIKMTIPYAAKL [RET1],2.27 ± 0.1,2.48 ± 0.11,2.89 ± 0.15,2.32 ± 0.09
KSGKFCSHCGCVYVPNF [SNM1],2.48 ± 0.068,1.79 ± 0.055,1.7 ± 0.11,1.42 ± 0.062
KSIENPTQTKGNDAKPA [YLR335W/NUP2],3.12 ± 0.075,3.24 ± 0.058,3.23 ± 0.046,2.94 ± 0.055
KSIINSQRPGARILARS [ITC1],,2.18 ± 0.16,2.45 ± 0.22,2.63 ± 0.11
KSKFNKSNRSYSIALSN [GAL11],2.85 ± 0.075,2.47 ± 0.13,3.1 ± 0.12,2.81 ± 0.064
KSKILRKVVFPFQLDVA [UBP6],2.23 ± 0.09,2.39 ± 0.089,2.65 ± 0.11,2.44 ± 0.057
KSKLFEWKSEFVVPTFG [SNM1],1.57 ± 0.058,1.63 ± 0.067,2.6 ± 0.08,1.32 ± 0.067
KSKSSLDGKFSLFHTAV [RPN2],2.86 ± 0.096,2.8 ± 0.072,2.86 ± 0.067,2.77 ± 0.067
KSLDEQLLLLSDERAKL [LRP1],2.73 ± 0.095,3.2 ± 0.1,2.84 ± 0.046,2.91 ± 0.088
KSLESQRYVKSVKSVKF [RPC34],1.26 ± 0.081,1.61 ± 0.058,2.16 ± 0.098,1.55 ± 0.084
KSLVQYIELLPNADDIR [DIS3],2.7 ± 0.15,2.75 ± 0.077,2.47 ± 0.069,2.62 ± 0.064
KSMKYVKKILPLYARYI [ECM29],1.38 ± 0.093,1.19 ± 0.069,,1.18 ± 0.1
KSNGLAPEIPEDLYYLI [RPS13],2.65 ± 0.081,2.83 ± 0.13,2.45 ± 0.11,2.4 ± 0.14
KSNGSSDDDNIGQSEEL [ISW2],3.3 ± 0.1,3.44 ± 0.09,3.31 ± 0.08,3.42 ± 0.12
KSNRSYSIALSNVAAIF [GAL11],1.76 ± 0.08,1.67 ± 0.097,1.4 ± 0.27,1.43 ± 0.064
KSNTIPVTSIPSTNKKL [GAL11],2.67 ± 0.076,2.87 ± 0.073,2.9 ± 0.044,2.96 ± 0.057
KSPPQFFYNISSIHWNN [SIN4],2.15 ± 0.042,1.89 ± 0.039,2.17 ± 0.065,2.11 ± 0.042
KSRGSDLQYLGEFSGKN [RRP6],3.13 ± 0.088,3.34 ± 0.11,3.45 ± 0.082,3.31 ± 0.073
KSRPDRPKPVSPPCYII [SNF5],2.93 ± 0.063,3.08 ± 0.057,2.98 ± 0.069,2.95 ± 0.041

Sequence,protein stability index (doa10∆),protein stability index (pdr5∆),protein stability index (san1∆),protein stability index (ubr1∆)
KSSLSLRDHALSLTAFT [ITC1],1.63 ± 0.036,2.14 ± 0.036,1.64 ± 0.064,2.16 ± 0.036
KTAKEVAGAIRAGIIIA [RPS2],2.49 ± 0.14,3.16 ± 0.17,2.69 ± 0.24,3.07 ± 0.1
KTCAEVIGGNSLFHIVV [SMC3],3.05 ± 0.11,3.1 ± 0.1,2.96 ± 0.071,3.01 ± 0.089
KTDEVIILGTNLYDGAE [BRR2],2.98 ± 0.068,3.12 ± 0.055,3.06 ± 0.042,2.9 ± 0.043
KTDFAKIINKPNELSQI [RPC82],3.09 ± 0.12,3.13 ± 0.12,2.84 ± 0.091,3.12 ± 0.14
KTFNKIQSQVFESLYNS [BRR2],1.57 ± 0.061,2.04 ± 0.064,1.25 ± 0.12,1.73 ± 0.054
KTGTKPAAVFTETLKHD [RPL4A],2.24 ± 0.077,2.19 ± 0.17,1.74 ± 0.15,2.54 ± 0.11
KTKAMSLSIEENIPVAL [POP1],2.92 ± 0.079,3.01 ± 0.099,3.22 ± 0.1,3.17 ± 0.092
KTMIKTIEKDKMKIQET [SMC2],2.85 ± 0.17,1.86 ± 0.14,1.64 ± 0.12,2.04 ± 0.062
KTPLLKQYLSASFSLKN [RPL6A],2.01 ± 0.051,1.98 ± 0.054,2.25 ± 0.059,2.27 ± 0.042
KTSSQTSLSSKDLSNYR [YMR153W/NUP53],2.67 ± 0.055,2.54 ± 0.06,2.58 ± 0.089,2.65 ± 0.039
KTVDSSIQPIESNIKMT [SSN2],2.47 ± 0.082,2.72 ± 0.1,2.86 ± 0.083,2.74 ± 0.052
KVAHTSYKRIYGEYPPT [PRE8],3.02 ± 0.062,3.14 ± 0.068,3.01 ± 0.085,3.09 ± 0.049
KVCECVCMHCGKLLLDE [RPO21],2.96 ± 0.082,2.97 ± 0.073,2.88 ± 0.087,2.96 ± 0.047
KVDINADSAVNRQTLMF [PRP28],3.32 ± 0.06,3.32 ± 0.072,3.08 ± 0.055,3.17 ± 0.052
KVKHDSQPFIKFLNFRP [SSN2],2.88 ± 0.06,2.6 ± 0.063,2.49 ± 0.079,2.63 ± 0.041
KVLGVKDMSPILGELKR [LRP1],2.71 ± 0.089,3.14 ± 0.068,2.88 ± 0.065,3.12 ± 0.045
KVLRKFRVQSQSNYGIY [NUT1],1.85 ± 0.053,2.29 ± 0.071,1.34 ± 0.11,2.3 ± 0.14
KVRLNASEREELALIEE [PRP8],3.14 ± 0.17,2.89 ± 0.14,2.98 ± 0.12,
KVVYIQRRSWRQYVGQL [DIS3],,3.51 ± 0.17,3.02 ± 0.12,
KVYAQLLESYKTLSLKS [RPN7],2.04 ± 0.062,2.56 ± 0.085,2 ± 0.11,1.32 ± 0.03
KWDDLNEQLTLLSKKHG [RPN5],2.67 ± 0.099,2.92 ± 0.083,2.58 ± 0.063,2.94 ± 0.055
KWDNQSASRAKNMPVIY [RGR1],2.86 ± 0.13,2.41 ± 0.12,,3.39 ± 0.16
KYACLAIRKNGQIDFWY [SIN4],1.98 ± 0.067,2.16 ± 0.077,2.08 ± 0.071,2.39 ± 0.045
KYFTELSHYIRQCFQDN [MED1],2.38 ± 0.053,2.35 ± 0.06,1.92 ± 0.089,2.5 ± 0.038
KYISAELYAQLRENGLV [SNU114],2.91 ± 0.13,2.99 ± 0.12,3.21 ± 0.092,3.07 ± 0.076
